Starred links: 1 amine or outer side, 2 acyl side, 3 side chain; linkers in the order of their positions; H or OH if unused. Non-standard residues stand in square brackets, D forms with d. No end group written: not given here. hSer(OMe) = COCC[C@H](N[*:1])C(=O)[*:2]; 1Nal = N[C@@H](Cc1cccc2ccccc12)C(=O)O; β3hI = CC[C@H](C)[C@H](N)CC(=O)O; β3hR = N=C(N)NCCC[C@H](N)CC(=O)O; β3hF = N[C@H](CC(=O)O)Cc1ccccc1; β3hK = NCCCC[C@H](N)CC(=O)O; Nle = CCCC[C@H](N)C(=O)O; Aib = CC(C)(N)C(=O)O; βAla = NCCC(=O)O
Legend:
[1] = target: human parathyroid hormone receptor 1 (human, UniProt Q03431); experiment: cell-based or functional assay
[2] = target: human parathyroid hormone receptor 2 (human, UniProt P49190); experiment: cell-based or functional assay

Row | Binder | hPTHR-1 EC50 (nM), CRE-luciferase reporter gene assay [1] | hPTHR-2 EC50 (nM), luciferase reporter gene assay [2]
1 | [Aib]VSEIQL[Nle]HNLGKHLNS[β3hF]ERVE[1Nal]LRKLLQDVHNF-NH2 [[Aib^1, Nle^8, β-hPhe^18, 1-Nal^23, Leu^27 hPTH (1-34)-NH2] | 0.06 nM | 5 nM
2 | SVSEIQLXHNLGXHLNSXERVEXLRKLLQDVHNF (Nle^8, Aib^13, β-hIle^18, 1-Nal^23, C-terminal NH2 (amide)) [[Nle^8, Aib^13, β-hIle^18, 1-Nal^23, Leu^27] hPTH (1-34)-NH2] | 0.14 nM | 68 nM
3 | [Aib]VSEIQL[Nle]HNLGKHLNS[β3hR]ERVE[1Nal]LRKLLQDVHNF-NH2 [[Aib^1, Nle^8, β-hArg^18, 1-Nal^23, Leu^27] hPTH (1-34)-NH2] | 0.05 nM | 16 nM
4 | [Aib]VSEIQL[Nle]HNLGKHLKS[β3hI]ERVE[1Nal]LRKLLQRVHEF-NH2 [[Aib^1, Nle^8, Lys^16, β-hIle^18, 1-Nal^23, Leu^27, Arg^30, Glu^33] hPTH (1-34)-NH2] | 0.09 nM | 6 nM
5 | SVSEIQL[Nle]HNL[Aib]KHLNS[β3hI]ERVE[1Nal]LRKLLQDVHNF-NH2 [[Nle^8, Aib^12, β-hIle^18, 1-Nal^23, Leu^27] hPTH (1-34)-NH2] | 0.23 nM | 13 nM
6 | SVSEIQL[Nle]HNLGKHLNS[β3hI]ERVE[1Nal]LRKLLQDVHNE-NH2 [[Nle^8, β-hIle^18, 1-Nal^23, Leu^27, Glu^34] hPTH (1-34)-NH2] | 0.12 nM | 57 nM
7 | SVSEIQL[Nle]HNLGKHLNS[β3hI]ERVE[1Nal]LRKLLQRVHNF-NH2 [[Nle^8, β-hIle^18, 1-Nal^23, Leu^27, Arg^30] hPTH (1-34)-NH2] | 0.18 nM | 7 nM
8 | SVSEIQL[Nle]HNLGKHLNS[β3hI]ERVE[1Nal]LRKLLQDVHEF-NH2 [[Nle^8, β-hIle^18, 1-Nal^23, Leu^27, Glu^33] hPTH (1-34)-NH2] | 0.12 nM | 41 nM
9 | SVSEIQL[Nle]HSLGKHLKS[β3hI]ERVE[1Nal]LRKLLQRVHEE-NH2 [[Nle^8, Ser^10, Lys^16, β-hIle^18, 1-Nal^23, Leu^27, Arg^30, Glu^33, Glu^34] hPTH (1-34)-NH2] | 0.04 nM | 6 nM
10 | [Aib]VSEIQL[Nle]HSLGKHLKS[β3hI]ERVE[1Nal]LRKLLQRV-NH2 [[Aib^1, Nle^8, Ser^10, Lys^16, β-hIle^18, 1-Nal^23, Leu^27, Arg^30] hPTH (1-31)-NH2] | 0.09 nM | 6 nM
11 | [Aib]VSEIQL[Nle]HSLGKHLKS[β3hI]ERVE[1Nal]LRKLLQRVHEF-NH2 [[Aib^1, Nle^8, Ser^10, Lys^16, β-hIle^18, 1-Nal^23, Leu^27, Arg^30, Glu^33] hPTH (1-34)-NH2] | 0.09 nM | 6 nM
12 | SVSEIQL[Nle]HNLGKHLKS[β3hI]ERVE[1Nal]LRKLLQDVHNF-NH2 [[Nle^8, Lys^16, β-hIle^18, 1-Nal^23, Leu^27] hPTH (1-34)-NH2] | 0.08 nM | 30 nM
13 | [Aib]VSEIQL[Nle]HNLGKHLN[βAla][hSer(OMe)]ERVE[1Nal]LRKLLQDVHNF-NH2 [[Aib^1, Nle^8, β-Ala^17, hSer(OMe)^18, 1-Nal^23, Leu^27] hPTH (1-34)-NH2] | 0.06 nM | 49 nM
14 | SVSEIQL[Nle]HNLGKHLNS[β3hI]ERVE[1Nal]LRKLLQHVHNF-NH2 [[Nle^8, β-hIle^18, 1-Nal^23, Leu^27, His^30] hPTH (1-34)-NH2] | 0.18 nM | 13 nM
15 | [Aib]VSEIQL[Nle]HNLGKHLN[β3hF][hSer(OMe)]ERVE[1Nal]LRKLLQDVHNF-NH2 [[Aib^1, Nle^8, β-hPhe^17, hSer(OMe)^18, 1-Nal^23, Leu^27] hPTH-(1-34)-NH2] | 0.1 nM | 117 nM
16 | SVSEIQL[Nle]HNLGKHLKS[β3hI]ERVE[1Nal]LRKLLQRVHEF-NH2 [[Nle^8, Lys^16, β-hIle^18, 1-Nal^23, Leu^27, Arg^30, Glu^33] hPTH (1-34)-NH2] | 0.09 nM | 14 nM
17 | SVSEIQL[Nle]HSLGKHLKS[β3hI]ERVE[1Nal]LRKLLQRVHEF-NH2 [[Nle^8, Ser^10, Lys^16, β-hIle^18, 1-Nal^23, Leu^27, Arg^30, Glu^33] hPTH(1-34)-NH2] | 0.12 nM | 8 nM
18 | [Aib]VSEIQL[Nle]HNLGKHLNS[hSer(OMe)][β3hK]RVE[1Nal]LRKLLQDVHNF-NH2 (N-terminus assumed; SMILES CCCC[C@H](NC(=O)[C@H](CC(C)C)NC(=O)[C@H](CCC(N)=O)NC(=O)[C@@H](NC(=O)[C@H](CCC(=O)O)NC(=O)[C@H](CO)NC(=O)[C@@H](NC(=O)C(C)(C)N)C(C)C)[C@@H](C)CC)C(=O)N[C@@H](Cc1c[nH]cn1)C(=O)N[C@@H](CC(N)=O)C(=O)N[C@@H](CC(C)C)C(=O)NCC(=O)N[C@@H](CCCCN)C(=O)N[C@@H](Cc1c[nH]cn1)C(=O)N[C@@H](CC(C)C)C(=O)N[C@@H](CC(N)=O)C(=O)N[C@@H](CO)C(=O)N[C@@H](CCOC)C(=O)N[C@@H](CCCCN)CC(=O)N[C@@H](CCCNC(=N)N)C(=O)N[C@H](C(=O)N[C@@H](CCC(=O)O)C(=O)N[C@@H](Cc1cccc2ccccc12)C(=O)N[C@@H](CC(C)C)C(=O)N[C@@H](CCCNC(=N)N)C(=O)N[C@@H](CCCCN)C(=O)N[C@@H](CC(C)C)C(=O)N[C@@H](CC(C)C)C(=O)N[C@@H](CCC(N)=O)C(=O)N[C@@H](CC(=O)O)C(=O)N[C@H](C(=O)N[C@@H](Cc1c[nH]cn1)C(=O)N[C@@H](CC(N)=O)C(=O)N[C@@H](Cc1ccccc1)C(N)=O)C(C)C)C(C)C) [[Aib^1, Nle^8, hSer(OMe)^18, β-hLys^19, 1-Nal^23, Leu^27] hPTH (1-$$4)-NH2] | 0.05 nM | 3 nM
19 | SVSEIQL[Nle]HNLGKHLNS[β3hI]ERVE[1Nal]LRKLLQDVHNK-NH2 [[Nle^8, β-hIle^18, 1-Nal^23, Leu^27, Lys^34] hPTH (1-34)-NH2] | 0.1 nM | 17 nM
20 | [Aib]VSEIQL[Nle]HNLGKHLNS[β3hI]ERVE[1Nal]LRKLLQDVHNF-NH2 [[Aib^1, Nle^8, β-hIle^18, 1-Nal^23, Leu^27] hPTH (1-34)-NH2] | 0.04 nM | 16 nM
21 | SVSEIQL[Nle]HNL[Aib][Aib]HLNS[β3hI]ERVE[1Nal]LRKLLQDVHNF-NH2 [[Nle^8, Aib^12,13, β-hIle^18, 1-Nal^23, Leu^27] hPTH (1-34)-NH2] | 0.25 nM | 34 nM
22 | [Aib]VSEIQL[Nle]HSLGKHLKS[β3hI]ERVE[1Nal]LRKLLQRVHEE-NH2 [[Aib^1, Nle^8, Ser^10, Lys^16, β-hIle^18, 1-Nal^23, Leu^27, Arg^30, Glu^33, Glu^34] hPTH (1-34)-NH2] | 0.04 nM | 4 nM
23 | SVSEIQL[Nle]HNLGKHLNS[β3hF]ERVE[1Nal]LRKLLQDVHNF-NH2 [[Nle^8, β-hPhe^18, 1-Nal^23, Leu^27] hPTH (1-34)-NH2] | 0.11 nM | 10 nM
24 | SVSEIQL[Nle]HNLGKHLNS[β3hI]ERVE[1Nal]LRKLLQDVHKF-NH2 [[Nle^8, β-hIle^18, 1-Nal^23, Leu^27, Lys^33] hPTH (1-34)-NH2] | 0.15 nM | 32 nM
25 | SVSEIQL[Nle]HSLGKHLKS[β3hI]ERVE[1Nal]LRKLLQRV-NH2 [[Nle^8, Ser^10, Lys^16, β-hIle^18, 1-Nal^23, Leu^27, Arg^30] hPTH (1-31)-NH2] | 0.08 nM | 7 nM
26 | SVSEIQL[Nle]HNLGKHLKS[β3hI]ERVE[1Nal]LRKLLQRVHNF-NH2 [[Nle^8, Lys^16, β-hIle^18, 1-Nal^23, Leu^27, Arg^30] hPTH (1-34)-NH2] | 0.14 nM | 14 nM
27 | SVSEIQL[Nle]HNLGKHLNS[β3hI]ERVE[1Nal]LRKLLQSVHNF-NH2 [[Nle^8, β-hIle^18, 1-Nal^23, Leu^27, Ser^30] hPTH (1-34)-NH2] | 0.19 nM | 19 nM

— patent US20110195900A1, “PEPTIDIC PTH RECEPTOR AGONISTS” (FERRING B.V., priority 2008, published 2011)
